Measurements published in article PMC4003909 (Structure (London, England : 1993), 2013).

Legend:
[1] = target: BCOR PUFD (1634-1748) with METR leader, co-expressed and purified with PCGF1 RAWUL (human, UniProt Q6W2J9 1634-1748); test: AUC
[2] = target: T1, BCORL1 PUFD (1594-1711) with METR leader, co-expressed and purified with PCGF1 RAWUL (human, UniProt Q5H9F3-1 1594-1711); test: AUC
T1 sequence: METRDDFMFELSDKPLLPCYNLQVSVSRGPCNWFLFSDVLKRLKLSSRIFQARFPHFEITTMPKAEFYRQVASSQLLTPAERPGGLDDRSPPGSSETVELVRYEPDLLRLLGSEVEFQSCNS

Kd [1]: < 8.5 µM | Kd [2]: < 8.5 µM
B1: PCGF1 RAWUL (167-255), co-expressed and purified with a PUFD (domain or fragment, human, UniProt Q9BSM1 167-255, looked up)
chain: EQLNLCLERLSSGKDKNKSVLQNKYVRCSVRAEVRHLRRVLCHRLMLNPQHVQLLFDNEVLPDHMTMKQIWLSRWFGKPSPLLLQYSVK
